Assay results: the supplement of paper PMC10567573

B1: HESX1 (parent)
chain: QKKDCVPLMKPHRPWADTCSSSGK
B2: ESRRA (parent)
chain: SLPLQDELAFAEDLVLDEEGARAA

Variants of: B1
Experiment: protein stability index of a GFP-peptide fusion (GPS, HEK-293T) (PSI 1-6); higher = more stable
Details: c terminus: a fixed tail appended
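Further: lentivirally expressed fusions sorted by FACS into six bins by GFP to DsRed ratio, PSI derived from sequencing read proportions per bin multiplied by bin number.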

Protein stability index: each site, then its substitutions
T18: G 3.69; C 3.15; A 3.41; N 3.75; H 2.13; E 4.29; F 2.35; M 2.44
Q1: M 3.03; S 3.49; Y 2.45; R 3.74; A 2.76; E 3.98; P 3.66; G 4.01; I 3.46; D 3.95
H12: R 4.82; E 4.44; S 4.05; K 3.73; C 3.42; Q 3.94; W 2.29; T 3.08; P 4.01; Y 3.29
C19: F 2.66; H 3.77; E 4.32; P 4.37; T 3.82; W 2.47; S 4.36; A 4.07; Q 4.03; K 4.47; N 4.83
S20: I 2.98; E 3.47; K 3.83; H 3.24; G 2.38; P 3.79; R 3; C 3.03; L 2.61; V 3.84; T 2.96
A16: H 3.98; V 2.46; L 3.75; Y 3.49; I 3.34; S 3.72; Q 4; W 3.39; D 4.66; F 3.44; P 3.96; G 3.57; K 3.96
P7: I 2.44; D 3.93; F 2.07; V 2.56; N 3.07; S 3.38; H 2.92
V6: R 2.88; F 3.28; Y 3.01; A 4.1; P 3.31; K 2.57; N 3.98; I 3.03; D 3.11; Q 2.98; H 3.17; M 3.05; E 4.38; W 3.08
S21: Q 3.75; F 2.44; C 2.92; L 3.18; E 3.86; P 3.58; W 2.79; H 2.88; I 2.69; D 3.24
K10: M 2.92; N 4.25; T 3.35; R 3.48; I 3.7; A 3.18; C 3.88; S 3.74; L 3.58; G 3.47; F 3.21; H 3.79
K3: P 3.62; I 3.01; S 3.69; A 3.52; F 4.05; R 2.92; W 4.36; Y 3.06; G 3.2; C 3.27; M 3.53; T 3.13; D 3.81; H 3.66
W15: G 4.96; Q 4.79; E 5.37; F 3.47; K 4.92; C 4.02; T 5.26; M 4.57; A 4.62
M9: T 3.77; I 3.23; F 2.85; G 4.27; R 3.13; Y 3.2; D 4.08; H 3.89; L 3.41
R13: W 3.4; K 3.5; P 3.25; E 4.97; H 3.6; N 4.15; I 3.66; L 3.4; T 3.33; G 4.21
L8: A 3.29; G 3.18; W 3.47; M 3; D 3.93; C 2.7; I 2.82; T 2.82; R 2.59; N 3.19; Y 3.78
D17: E 3.53; H 3.71; P 3.6; K 3.91; R 3.46; F 3.07; Y 3.17; W 2.78; T 3.06; G 3.45; I 2.57
G23: K 4.08; I 2.76; V 2.33; H 2.62; W 1.6; F 1.61
K24: T 2.85; M 2.05; P 3.18; C 3.33; D 3.22; V 2.55; I 2.51; H 2.46; F 2.56; L 1.78; W 1.98
P14: Y 2.98; E 4.12; I 3.26; W 2.96; Q 3.88; G 3.96; M 2.84; S 3.1
D4: M 2.12; F 2.61; K 2.89; A 2.87; R 2.43; C 2.38; W 2.39; S 2.92
S22: P 3.68; M 3.43; W 2.12; A 2.95; Y 3.29; K 3.69; D 2.61; F 2.74; H 3.96
K2: E 4.16; N 3.33; S 3.06; A 3.27; M 3.24; H 3.4; C 4.18; W 2.88
C5: L 3.59; G 2.62; P 3.17; F 3.38; Y 3.38; N 3.06; W 3.34; K 2.81
P11: E 3.1; F 3.03; W 3.16; H 3.51; Y 2.55

Variants of: B2
Experiment: as above
Details: c terminus: a fixed tail appended

Protein stability index: each site, then its substitutions
D13: K 3.81; Q 3.68; P 5.46; W 3.31; S 3.37
L14: R 4.2; M 3.29; W 4.92; T 5.13; Y 5.32; C 3.46; N 5.38; H 5.42; I 4.3; V 4.41; Q 3.5
D6: E 2.67; S 3.25; P 4.04; A 3.27
L4: K 5.08; P 5.46; W 5.32
F10: H 3.44; G 4.26; L 2.5
D17: Y 2.5; L 2.71; Q 3.31; K 2.46; M 2.03
E7: D 3.63; W 4.16; L 3.66; S 3.29
A24: L 2.75; P 3.21; V 3.06; Y 3; M 2.97; E 3.5
E19: N 2.63; T 2.71; H 2.33; Q 2.56; L 2.15; W 2.52
Q5: H 3.66; N 3.77; R 3.37; Y 2.96; V 3.64; T 5.34; D 5.44
A21: L 3.63; Y 2.63; Q 2.29
P3: C 4.78; F 4.6
R22: S 3.62; M 3.42; A 3.35; I 2.94; C 3.2; G 3.13
A23: I 2.87; W 2.44; T 3.08; P 3.35
G20: E 5.11; D 3.46
S1: V 2.89; Q 3.09
A11: T 4.23; Q 5.56; G 5.17
L2: C 2.32; V 3.26; M 3.48; F 3.06; K 4.4; Q 3.95; Y 3.22
A9: G 4.01; I 4.8; L 3.45; V 4.88; W 3.68
E12: T 5.41
E18: G 2.93
V15: I 3.18; W 4.85; N 5.68; Y 5.25; H 5.45
L8: R 5.66; E 5.55
L16: C 3.63; H 3.6; P 5.75; E 5.2
